No end group written: not given here.

The chains are these.
B1: ADP356 (protein)
chain: MAPLPGALGVAAAAALWLLLLLLPRTRADEHEHTYQDKEEVVLWMNTVGPYHNRQETYKYFSLPFCVGSKKSISHYHETLGEALQGVELEFSGLDIKFKDDVMPATYCEIDLDKEKRDAFVYAIKNHYWYQMYIDDLPIWGIVGEADENGEDYYLWTYKKLEIGFNGNRIVDVNLTSEGKVKLVPNTKIQMSYSVKWKKSDVKFEDRFDKYLDPS
modifications: bait human Fc-tagged dimer
B2: ADP357 (protein)
chain: MGPPSAPPCRLHVPWKEVLLTASLLTFWNPPTTAKLTIESTPFNVAEGKEVLLLAHNLPQNRIGYSWYKGERVDGNSLIVGYVIGTQQATPGPAYSGRETIYPNASLLIQNVTQNDTGFYTLQVIKSDLVNEEATGQFHVYPELPKPSISSNNSNPVEDKDAVAFTCEPEVQNTTYLWWVNGQSLPVSPRLQLSNGNMTLTLLSVKRNDAGSYECEIQNPASANRSDPVTLNVLYGPDGPTISPSKANYRPGENLNLSCHAASNPPAQYSWFINGTFQQSTQELFIPNITVNNSGSYMCQAHNSATGLNRTTVTMITVSGSAP
modifications: bait human Fc-tagged dimer
B3: ADP119 (protein)
chain: MDVCVRLALWLLWGLLLHQGQSLSHSHSEKATGTSSGANSEESTAAEFCRIDKPLCHSEDEKLSFEAVRNIHKLMDDDANGDVDVEESDEFLREDLNYHDPTVKHSTFHGEDKLISVEDLWKAWKSSEVYNWTVDEVVQWLITYVELPQYEETFRKLQLSGHAMPRLAVTNTTMTGTVLKMTDRSHRQKLQLKALDTVLFGPPLLTRHNHLKD
modifications: bait human Fc-tagged dimer
B4: ADP360 (protein)
chain: MGAARGSPARPRRLPLLSVLLLPLLGGTQTAIVFIKQPSSQDALQGRRALLRCEVEAPGPVHVYWLLDGAPVQDTERRFAQGSSLSFAAVDRLQDSGTFQCVARDDVTGEEARSANASFNIKWIEAGPVVLKHPASEAEIQPQTQVTLRCHIDGHPRPTYQWFRDGTPLSDGQSNHTVSSKERNLTLRPAGPEHSGLYSCCAHSAFGQACSSQNFTLSIADESFARVVLAPQDVVVARYEEAMFHCQFSAQPPPSLQWLFEDETPITNRSRPPHLRRATVFANGSLLLTQVRPRNAGIYRCIGQGQRGPPIILEATLHLAEIEDMPLFEPRVFTAGSEERVTCLPPKGLPEPSVWWEHAGVRLPTHGRVYQKGHELVLANIAESDAGVYTCHAANLAGQRRQDVNITVATVPSWLKKPQDSQLEEGKPGYLDCLTQATPKPTVVWYRNQMLISEDSRFEVFKNGTLRINSVEVYDGTWYRCMSSTPAGSIEAQARVQVLEKLKFTPPPQPQQCMEFDKEATVPCSATGREKPTIKWERADGSSLPEWVTDNAGTLHFARVTRDDAGNYTCIASNGPQGQIRAHVQLTVAVFITFKVEPERTTVYQGHTALLQCEAQGDPKPLIQWKGKDRILDPTKLGPRMHIFQNGSLVIHDVAPEDSGRYTCIAGNSCNIKHTEAPLYVVDKPVPEESEGPGSPPP
modifications: bait human Fc-tagged dimer
B5: ADP350 (protein)
chain: MAAAGRLPSSWALFSPLLAGLALLGVGPVPARALHNVTAELFGAEAWGTLAAFGDLNSDKQTDLFVLRERNDLIVFLADQNAPYFKPKVKVSFKNHSALITSVVPGDYDGDSQMDVLLTYLPKNYAKSELGAVIFWGQNQTLDPNNMTILNRTFQDEPLIMDFNGDLIPDIFGITNESNQPQILLGGNLSWHPALTTTSKMRIPHSHAFIDLTEDFTADLFLTTLNATTSTFQFEIWENLDGNFSVSTILEKPQNMMVVGQSAFADFDGDGHMDHLLPGCEDKNCQKSTIYLVRSGMKQWVPVLQDFSNKGTLWGFVPFVDEQQPTEIPIPITLHIGDYNMDGYPDALVILKNTSGSNQQAFLLENVPCNNASCEEARRMFKVYWELTDLNQIKDAMVATFFDIYEDGILDIVVLSKGYTKNDFAIHTLKNNFEADAYFVKVIVLSGLCSNDCPRKITPFGVNQPGPYIMYTTVDANGYLKNGSAGQLSQSAHLALQLPYNVLGLGRSANFLDHLYVGIPRPSGEKSIRKQEWTAIIPNSQLIVIPYPHNVPRSWSAKLYLTPS
modifications: bait human Fc-tagged dimer
B6: ADP129 (protein)
chain: MFPFYSCWRTGLLLLLLAVAVRESWQTEEKTCDLVGEKGKESEKELALVKRLKPLFNKSFESTVGQGSDTYIYIFRVCREAGNHTSGAGLVQINKSNGKETVVGRLNETHIFNGSNWIMLIYKGGDEYDNHCGKEQRRAVVMISCNRHTLADNFNPVSEERGKVQDCFYLFEMDSSLACSPEISHLS
modifications: bait human Fc-tagged dimer
B7: ADP266 (protein)
chain: EEFRPEMLQGKKVIVTGASKGIGREMAYHLAKMGAHVVVTARSKETLQKVVSHCLELGAASAHYIAGTMEDMTFAEQFVAQAGKLMGGLDMLILNHITNTSLNLFHDDIHHVRKSMEVNFLSYVVLTVAALPMLKQSNGSIVVVSSLAGKVAYPMVAAYSASKFALDGFFSSIRKEYSVSRVNVSITLCVLGLIDTETAMKAVSGIVHMQAAPKEECALEIIKGGALRQEEVYYDSSLWTTLLIRNPCRKILEFLYSTSYNMDRFINK
modifications: bait human Fc-tagged dimer
B8: ADP295 (protein)
chain: MALLLCFVLLCGVVDFARSLSITTPEEMIEKAKGETAYLPCKFTLSPEDQGPLDIEWLISPADNQKVDQVIILYSGDKIYDDYYPDLKGRVHFTSNDLKSGDASINVTNLQLSDIGTYQCKVKKAPGVANKKIHLVVLVKPSGARCYVDGSEEIGSDFKIKCEPKEGSLPLQYEWQKLSDSQKMPTSWLAEMTSSVISVKNASSEYSGTYSCTVRNRVGSDQCLLRLNVVPPSNKAG
modifications: bait human Fc-tagged dimer
B9: ADP315 (protein)
chain: MARAHWGCCPWLVLLCACAWGHTKPVDLGGQDVRNCSTNPPYLPVTVVNTTMSLTALRQQMQTQNLSAYIIPGTDAHMNEYIGQHDERRAWITGFTGSAGTAVVTMKKAAVWTDSRYWTQAERQMDCNWELHKEVGTTPIVTWLLTEIPAGGRVGFDPFLLSIDTWESYDLALQGSNRQLVSITTNLVDLVWGSERPPVPNQPIYALQEAFTGSTWQEKVSGVRSQMQKHQKVPTAVLLSALEETAWLFNLRASDIPYNPFFYSYTLLTDSSIRLFANKSRFSSETLSYLNSSCTGPMCVQIEDYSQVRDSIQAYSLGDVRIWIGTSYTMYGIYEMIPKEKLVTDTYSPVMMTKAVKNSKEQALLKASHVRDAVAVIRYLVWLEKNVPKGTVDEFSGAEIVDKFRGEEQFSSGPSFETISASGLNAALAHYSPTKELNRKLSSDEMYLLDSGGQYWDGTTDITRTVHWGTPSAFQKEAYTRVLIGNIDLSRLIFPAATSGRMVEAFARRALWDAGLNYGHGTGHGIGNFLCVHEWPVGFQSNNIAMAKGMFTSIEPGYYKDGEFGIRLEDVALVVEAKTKYPGSYLTFEVVSFVPYDRNLIDVSLLSPEHLQYLNRYYQTIREKVGPELQRRQLLEEFEWLQQHTEPLA
modifications: bait human Fc-tagged dimer
B10: ADP349 (protein)
chain: MAAAGPRRSVRGAVCLHLLLTLVIFSRAGEACKKVILNVPSKLEADKIIGRVNLEECFRSADLIRSSDPDFRVLNDGSVYTARAVALSDKKRSFTIWLSDKRKQTQKEVTVLLEHQKKVSKTRHTRETVLRRAKRRWAPIPCSMQENSLGPFPLFLQQVESDAAQNYTVFYSISGRGVDKEPLNLFYIERDTGNLFCTRPVDREEYDVFDLIAYASTADGYSADLPLPLPIRVEDENDNHPVFTEAIYNFEVLESSRPGTTVGVVCATDRDEPDTMHTRLKYSILQQTPRSPGLFSVHPSTGVITTVSHYLDREVVDKYSLIMKVQDMDGQFFGLIGTSTCIITVTDSNDNAPTFRQNAYEAFVEENAFNVEILRIPIEDKDLINTANWRVNFTILKGNENGHFKISTDKETNEGVLSVVKPLNYEENRQVNLEIGVNNEAPFARDIPRVTALNRALVTVHVRDLDEGPECTPAAQYVRIKENLAVGSKINGYKAYDPENRNGNGLRYKKLHDPKGWITIDEISGSIITSKILDREVETPKNELYNITVLAIDKDDRSCTGTLAVNIEDVNDNPPEILQEYVVICKPKMGYTDILAVDPDEPVHGAPFYFSLPNTSPEISRLWSLTKVNDTAARLSYQKNAGFQEYTIPITVKDRAGQAATKLLRVNLCECTHPTQCRATSRSTGVILG
modifications: bait human Fc-tagged dimer
B11: ADP114 (protein)
chain: MVMSVGLSLLLPLWGRTFLLLLSVVMAQSHWPSEPSEAVRDWENQLEASMHSVLSDLHEAVPTVVGIPDGTAVVGRSFRVTIPTDLIASSGDIIKVSAAGKEALPSWLHWDSQSHTLEGLPLDTDKGVHYISVSATRLGANGSHIPQTSSVFSIEVYPEDHSDLQSVRTASPDPGEVVSSACAADEPVTVLTVILDADLTKMTPKQRIDLLHRMRSFSEVELHNMKLVPVVNNRLFDMSAFMAGPGNPKKVVENGALLSWKLGCSLNQNSVPDIHGVEAPAREGAMSAQLGYPVVGWHIANKKPPLPKRVRRQIHATPTPVTAIGPPTTAIQEPPSRIVPTPTSPAIAPPTETMAPPVRDPVPGKPTVTIRTRGAIIQTPTLGPIQPTRVSEAGTTVPGQIRPTMTIPGYVEPTAVATPPTTTTKKPRVSTPKPATPSTDSTTTTTRRPTKKPRTPRPVPRVTTKVSITRLETASPPTRIRTTTSGVPRGGEPNQRPELKNHIDRVDAWVGTYFEVKIPSDTFYDHEDTTTDKLKLTLKLREQQLVGEKSWVQFNSNSQLMYGLPDSSHVGKHEYFMHATDKGGLSAVDAFEIHVHRRPQGDRAPARFKAKFVGDPALVLNDIHKKIALVKKLAFAFGDRNCSTITLQNITRGSIVVEWTNNTLPLEPCPKEQIAGLSRRIAEDDGKPRPAFSNALEPDFKATSITVTGSGSCRHLQFIPVVPPRRVPSEAPPTEVPDRDPEKSSEDDVYLHT
modifications: bait human Fc-tagged dimer
B12: ADP371 (protein)
chain: MRRAWILLTLGLVACVSAESRAELTSDKDMYLDNSSIEEASGVYPIDDDDYASASGSGADEDVESPELTTSRPLPKILLTSAAPKVETTTLNIQNKIPAQTKSPEETDKEKVHLSDSERKMDPAEEDTNVYTEKHSDSLFKRTE
modifications: bait human Fc-tagged dimer

Chain of Circumsporozoite protein (CSP) (Q7K740 19-374): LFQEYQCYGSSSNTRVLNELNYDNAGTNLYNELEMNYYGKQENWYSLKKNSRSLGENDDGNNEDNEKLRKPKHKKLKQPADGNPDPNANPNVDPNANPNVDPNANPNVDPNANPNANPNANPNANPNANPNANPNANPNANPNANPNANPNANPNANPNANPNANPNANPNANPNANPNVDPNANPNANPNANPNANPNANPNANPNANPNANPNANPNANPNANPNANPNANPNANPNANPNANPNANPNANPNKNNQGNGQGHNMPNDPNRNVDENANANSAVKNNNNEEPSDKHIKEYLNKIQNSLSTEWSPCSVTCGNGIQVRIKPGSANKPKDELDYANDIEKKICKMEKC

The assay concerns the target Circumsporozoite protein (CSP) (Plasmodium falciparum (isolate 3D7), UniProt Q7K740). The assay is described as follows: AVEXIS screen signal:noise (double-corrected).
B1: the binding score came to 1.

B2 returned a binding score of 0.755.

As to B3, the binding score was determined as 1.89.

As for B4, the binding score was 0.739.

On to B5, for which the binding score amounted to 0.985.

For the molecule B6, the binding score worked out at 1.25.

In turn, B7 gave a binding score of 0.642.

B8 came in with a binding score of 1.09.

B9 registered a binding score of 2.59.

In turn, B10 showed a binding score of 0.666.

As to B11, the binding score is 1.2.

MAIHKALVMCLGLPLFLFPGAWAQGHVPPGCSQGLNPLYYNLCDRSGAWG (cysteine pairing not given here; also: human Fc-tagged dimer) [ADP328] displayed a binding score of 1.01.

B12 came in with a binding score of 1.57.
